This note sets out measurements from patent US20240026407A1, “MODIFICATION OF SAPONINS” (GLAXOSMITHKLINE BIOLOGICALS SA, priority 2020, published 2024).

Sequences and labels used below:
B1: 1072 (protein, listed as Kribbella flavida)
chain: MAEPVAPDGWTSGGPLAVAKLTAEYAEEPHGTDEVRPRLAWIATAPGYGATQSAYQVLVASQPELLSPEQADVWDSGQVGSDAVQVAYDGPALAARTRYHWAVRLWDGQGRAGRWSRPSWFETALLDEGFGAARWIGASTEAAPLLRRPFELTGPVRRARLYASGLAYAVLRVNGQQVGDAVLDPGFTNYDRTVLYVTHDVTELLQAGENVLGAELGRGFFGMTTPNVWRWHQAPWTGDPRLLARLVIDHEDGTTTELVSDGSWRVTSGPTVSDSLYAGERYDARLAQPGWDAPGFDDAAWSPAVELTAPQGTLRAQAHEPIRVVEEVAPVAISSPRAGVQVIDFGRTTAGWAKLRVEAPAGSRFTLVYGETLTADGQVEATNRHVDGDRFQQDEYVAAGHEIEQWEPRFSYKGFRYLQVTGDAEAEVVLKVVHSDVRAASRFDSDVEVYSWLEQAMRRTVLNNLHGIPTDTPIFEKNGWTGDAQVGAPTMASLVDLARFFTKWLDDLRDSQLPDGRLPVIVPSAGWGYAELAPATEWSTVYPFLLREMHRWYGDTRVLADHWDAVLRYLDWELERVEDGLSISVLGDWLPPGYPDGPPPEDSRLTATAYLHRAVTAVVEIGELIGETSELERLRKAAAELADGLNREFLDREAGLYRTAADPDYRQTSNAVPLAFGLVPEDQVPRVVANLVADVQARDFHLNTGCLGVGVLLPVLTQYGHADVAAKLAQQRTYPSWGYWLEEGADTLWEMWEADTRSRNHYFHGTVVQWLLESVAGLRNVGNGWQRIVVRPDARTGSTSAALRTDTVRGRVAASWRLVGRVLQLEVQVPVGCVAEVHVPSEAAADVTAVPSPYAGEPTRSDGYTVYTVPSGQWHFTSRTA
B2: 1068 (protein, listed as Pedobacter heparinus)
chain: MINQIFKFSFFALNLLAWYSFTAKSQDLKVFDKATSWITCDKAQDQSNSWIAFRKVVQLDEKPVKALLDISVDSKYWLYINEKLVVFEGGLKRGPNPDDTYYDEADLTEYLKAGTNTIAVLLWYFGKNGFSHHSSGRAGMFFQLDMDKQGKICSDRSWKCSVVPAYLNVYSGDQPNYRLAESNVIYDARLALGDWTSASYNDKTWRNPFVVGPAGCMPWNKLVKRPIPQWKDYGIVNFNLNFPFNATGDTIKVKLPYNAQFTPYLKVEATAGKTIEMFTDNYSGGSENNVRAEYITKTGIQEYESFGWMNGHVMMFVIPKGAKVLSLGYRETGYHTTFAGSFNCNDAFYNKLWEKSSRTLYVNMRDSYMDCPDRERAQWWGDEVTEMTQSFYALDPDANLLAKKGIDELTGWQRSDGVLFSPIPAGNFDLELPVQMLTSVGYYGFWTYYYYTGDLETIRAAYPSIRKYLSLWEMDKNGLVISRTGGWNWGDWGKNVDIDLMSNAWYYLACKGYLEMSKTLNHAEEIKWAENQMSVMKKSFDTRFWTGKAYRSPDYKGQTDDRSNALAVLAGLTAPAKYPLLKDVFLTEEHSSPYMEKYVLEALFKMGYADIALERLKKRYTAMVDSELTTLWEGWKIGVNGYGGGSYNHAWSGGGLILLSRFVAGIEPASPGYETVKIAPQMGSLINCSATVSSVAGLIAVKNTFTNEKEFNQLIESPSPLKIYFPFEVYRIKKIRVNNKKLSEALMLKFKNEGKLELSKGKYKLTVNIN
B3: 1025 (protein, listed as Bacteroides xylanisolvens)
chain: MKKDYMKYQQNSKREEKSKFITNQLTNMAHISIRSYLYLLGTTLFSCAPQELKTPFELKCENIPVPVGVDTQTPRLSWKLPLLEEDSINRVEIWLSTDSTQLSGRQSGYWNKSIIGAPIRVSYDGQPLDSYTTYYWKIGYQTSSKQKTTFSPISSFTTGCLSPDNWKGKWITDKHDITYRPAPYYRKSFQLDKTIEQALLTIASAGLHELSVNGQRAGNHFLDPMYTHFDKRILSVTHDVTSLLSLGENVIGVQLGNGWYNHQSTAVWFFDKASWRNRPKFTAQLHLRYTDGTTEYLGTDSTWQTTDSPVIFNSIYTAEHYDAQKELAGWDSPGFNATGWYHAQETESPTETIKSQVMHPIRETARYTATQCKKINDSCYVYHFPKNIAGVTELKVKGKKGTKLRLKHGELLDKNGMVNMANIDYHYRPTDDSDPFQTDIVILSGKQDRFMPKFNYKGFQFVEVSSSAPIQLSDENLIAVEMHSDIPAIGYWSSSSDLLNKIWKATNSSYLANLFGYPTDCPQREKNGWTGDAHITIETGLYNFDGISIYEKWMNDFCDEQKDNGILPCIIPTSVWGYDWANGVDWTSAVAIIPWEIYRFYGDTTLLRRMYGPIKKYVSYIESISTNHLTDWGLGDWVPVRSKSNITLTSSIYYYTDVCILAKAARLFGYAEDASYYNTLAQKIKEAINTSFLNKETGIYAEGTQTELAMPLYWGIVPEEDKKKVAARLHELVEKDDYHLDVGLLGSKALLSAMSDNGYAETAYKVASQDTYPSWGVLDQTRCYNST
B4: 1009 (protein)
chain: MFKILRPIGFLAALLLLTGEMVMGQKSTQIISPSVFQNPPSTYGIRCWWWWLNGNVDKEVITRDLEEMKAKGFSGACLFDAGGAEQRGNAQVPAGPMFGSPQWRELYIHAMREADRLGLVMSMSIQSGWNLGGPDITAEESAKQVAFSQVQVKGNTRISQELPMPKTHHDFYRDIVVLAIPTKVFANRPPIRDFENKAATREVGASVPETRPLLTDIPGTPGEEDASKKQVLNITRHFKNGKLEWRAPAGEWTVLRFGYTATDAEVSTSSGDWQGLVIDYMSEKAFNRYWDTNVEPLLKAIGPLAGKTLRYLQTDSFEAGGMNWTDGFEKEFIKHRGYDPIPYLPVLAGKIIDSREVSNRFLSDLRKTLADLIAEKHYGVFSKRSAAYGIGIQPESAGPHAGPFDGLKNYGYSEIMMSEFWSPSPHRPRPIDRFFVKQAGSAAKIHNKKLVGAESFTTIGPHWNDVMWSDMKPSVDHEFSAGLNLVYLHTFTASPKAMGIPGQEYFAGTHFNPNVTWWNQSTAFIQYLTRCQYLLQSGTSVADVLYYYGDHSPNLGRLKEDDPAKALPGFDYDLINEDRLMELQAKDGKIFLPHGVSYRVLVLPDHKTLSLKALQKVEALVKEGASVIGSKTVTTASLVKYPASEQTVRQIADGLWGTGNEATGSRNVGKGTIAWGITAADFLRSKGVHFDMEITARETGSRYDYIHREDTGADFYFISSQNRAASKMTAAFRMTGKQPELWNPVTGETRPATSFYQKDGKTYIPLEFDPYGSVFVVFRDDIAKDQNGSAASNFVHLETATTLHGSWDVAFDPAWGGPAAVVFNELVSWPDRNEEGIKYYSGKAVYSKKFDASQDVAESKQVFLDLGEVKDIGIAKVTLNGKDLGILWAPPLRVPVGGVLKEKDNVLQIEVVNTWRNRLIGDRTKPVEKRFTKTNVKVLETWQLTPSGLLGPVRLLTGSEQ
modifications: Dyadobacter fermentans
B5: 1044 (protein, listed as Streptomyces sp.)
chain: MHETHPRRGGMTRRSVLAAGLTTGVLAALGPAAEAAASPAASPAASPAASASAGATPTASWFAAPARAVRPKFRWWWPDGLVDPAEIAREIDQMADAGFGGAEIAAVHHSISDTSVLDTAHHGWGSAPWRDGVKAALRQAARRGLTVDLTLGPSWPVAVPGVTPDDEAAVKELAYGKATLTGGAAFDGPVPAPVYAPASGVTVQKLFAVQAARVDTAYSSGKATGLDVDSVTDLTNRVADGNLRWTPPDSGTWVVLSYWQRGSGQQPEAGPHSSPAAYVIDHFSAAGTAAVTRYWDTAILDSTLRKLLKAAGGAFFEDSVELESKGLQWTPGLPDAFRAHTGRDLLPYLPAVILDNSNQVFAFEARLTQEIRHDFWETVSNLFNEHHLGALKKWAHGHGMKLRSQPYGLQTDAIASAAVLDIPEGESLGFKNLDDYRCLAGGRDMAGSRVLSCESGAYAGGAYNTTWDKFLRTMGGAYAAGVNQTVIHGFSYATAPGVSWPGFAAFSPYSGAPGYGESWGPRQPTWHHVADVAGYIGRVQQVLQSGTVRADVAVFRQTGYTATGIGASWLTSTGVPLGWTHQFLSGPLLDLPNAKVSGKRLAPDGPAYKALFLEGDFFYGSTPTLSVDDAHKLLKFARAGLPTVLLGAFGQALTPGLPDDGETDELRALTAELLALPNVRNVTDKTLVGAAFAELGVTSDVSYSVSSTLLNAHRVTDDADFYYLCNGKHAETVKPPVAAIDHDVTLRSTVRGGAGTVPYLLDPWSGRVTRLARYTRDGDAFTFRVTLQPGETLVVALGRPGLFGNRDGNRPHAVATDADEALFTGGRLAVRASAAGTFTTTLSTGRKVTTKVAEVPAAVTPDRWTLSVDDWRPGADATSTEVVRHSLTLDALLPWSQIPELADVGGIGTYRTTVTLPKSWSSATGALLRLGSVTDTCRVTVNGVRLDPVDRVNPVVDLGGRLRKGANTLEIEVATPLFNRLRVSNPAVFGTAARQAYGLVGPVQLVPYVQRTVA
B6: 1021 (protein, listed as Paenibacillus sp.)
chain: MLQPYAPAIKNYYSAIGIDTPKPIFVWKLSSPLRNQKQTHYRITVAENAESLEEENNLLWDSGKVASDEQLGVMYKGSPLESTSRYCWRVAIWDSSGQSLWSEVQYFITGYLNSEHWSAKWIGDGSDAPFYARYEFDLNKKVKQAFALVSGLGQFKFYMNGRQVGDHEMDPGWTNYHKSVQYVGFDITDHLQSGKNAVGLHVGNGFFAGASGGRHFYTMDKGYEPYGDQLVAIGEWHIEFEDGSRIILRTGEEGWKVHESATTLANVYGSENFDARLYPDGYHVPGFDDSGWKPAQLLKPPAGNLVQQNQPPVKVKQVYDTLSVAEPLPGVYVFDLGQNMAGMFEIYASGPAGSKVIIKPGELMREDGTIATPWDIVTYSEFILAGTGEVEVWKPDFSYYGARWVQIEGCTRDEADTGRPMIHDVKGHFITSASQDTGTLSTDDVRIDKLADIITKAIESNLQSVHTDCPTIEKLGWLEASALMGPSIVYVKQAEELFLKIVRDMMEAQTEEGLIPDIAPEYSLFPDGFRDSIAWGIALLMVPDLLLERYNNFTAIEVAYPAMKRYMDYLKSKEIHDGLIGHGLGDWGIQPQTGGDYIENVETAFYYEGYRLMAKFAGILGFTDELEDYSAEAERIKLNYNKQLLHSLPENSPRYAYCKLGGQFDPANQVVQAIPLAFNLVPEEQLHNVEHALLQAVASRQFHSGEIGLRYLFLALSRLNRNDIVLDMMMQPEHPSYIRFVERGETSLPEFWTDEARSRNHDMMGHILEWLYKELLGISSASGAYKEILIAPFRSGRVKRVKGVHHSIRGEIGVEFSHSAEEIILNVQIPANTTATLQIPLLHGESQLYERGTRVLYEPFNQGAQIYARLKIGSGSYSYVNRV

The first test is described as follows: Experiment 6-1: screening of rhamnosidases for derhamnosylation of saponins in treated bark extract (2%), desglucosyl-QS-17 2134 to QS-21 1988 (PAR %). The class given is biochemical, Quillaja saponaria. As to conditions: TBE 2%, pH 7.5, 30 degC, 18 h; TIC peak area ratio percent, LCMS/MS; negative controls 2.719, 2.158.
For the molecule B1, the “Peak75 (PAR %)” value is given as 2.462%.
In the case of B2, the “Peak75 (PAR %)” value was 2.370%.
As for B3, the “Peak75 (PAR %)” value was found to be 2.330%.
In the case of B4, the “Peak75 (PAR %)” value is reported as 2.379%.
B5: the “Peak75 (PAR %)” value is recorded as 2.274%.
On the same count and under the same terms, under B6 stands 2.296%.

The next test can be described thus: Experiment 6-1: screening of rhamnosidases for derhamnosylation of saponins in treated bark extract (2%), QS-17 2310 to QS-18 2164 (PAR %). The class given is biochemical, Quillaja saponaria. As to conditions: TBE 2%, pH 7.5, 30 degC, 18 h; TIC peak area ratio percent, LCMS/MS; negative controls 3.061, 2.429.
Regarding B1, the “Peak57 (PAR %)” value stood at 3.245%.
As to B2, the “Peak57 (PAR %)” value was 3.156%.
As for B3, the “Peak57 (PAR %)” value turned out to be 2.933%.
On the same count and under the same terms, under B4 stands 3.762%; under B5, 3.156%.
In the case of B6, the “Peak57 (PAR %)” value worked out at 3.148%.

The next test is described as follows: Experiment 6-1: screening of rhamnosidases for derhamnosylation of saponins in treated bark extract (2%), QS-17 2296 to QS-18 2150 (PAR %). As to conditions: TBE 2%, pH 7.5, 30 degC, 18 h; TIC peak area ratio percent of rhamnosylated starting saponin to derhamnosylated product, LCMS/MS; negative controls 4.876, 5.225. The format is biochemical, Quillaja saponaria.
In the case of B1, the “QS-17 (PAR %)” value is recorded as 5.457%.
Still for that read-out and setting: with B2 the figure was 5.521%; with B3, 5.495%; with B4, 5.408%.
As to B5, the “QS-17 (PAR %)” value was 5.370%.
Still for that read-out and setting: with B6 the figure was 5.476%.

Another test can be described thus: Experiment 6-1: specificity of rhamnosidases towards other rhamnose residues (C3 saccharide rhamnose, C28 saccharide rhamnose). The class given is biochemical, Quillaja saponaria. As to conditions: TBE 2%, pH 7.5, 30 degC, 18 h; LCMS/MS; negative controls 0.18, 0.17.
Regarding B1, the “ratio PP/QS-21” value is recorded as 0.17.
Take B2: the “ratio PP/QS-21” value was found to be 0.17.
Take B3: the “ratio PP/QS-21” value was determined as 0.18.
The same measure, in the same setting: with B4 the figure was 0.16; with B5, 0.16; with B6, 0.16.
